Laboratory results: the supplement of paper PMC9732359
± gives the uncertainty stated by the source.

Assay: protein stability index of a GFP-peptide fusion (yeast GPS) (PSI 1-4); higher = more stable; sorted into four equal gates, so the index is relative within each strain
Procedure, shortened: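 Mid-log yeast cultures in leucine-free medium, carrying a pooled plasmid library, were sorted into four equal gates by their GFP/Cherry fluorescence ratio. Each plasmid expressed Cherry along with GFP fused upstream of a tiled 17-residue yeast protein peptide. Plasmids recovered from each gate were PCR-amplified and Illumina-sequenced, with reads assigned to strains by barcodes. The protein stability index was obtained by summing each gate's read frequency weighted by its gate number.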

Sequence | protein stability index (doa10∆) | protein stability index (pdr5∆) | protein stability index (san1∆) | protein stability index (ubr1∆)
DDVKNILNAKYTKETYQ [RPN6] | 3.26 ± 0.076 | 2.99 ± 0.066 | 3.08 ± 0.052 | 3.12 ± 0.064
TYEAIEITDAYCFAKND [YMR129W/POM152] | 2.93 ± 0.061 | 2.66 ± 0.053 | 2.7 ± 0.05 | 3.01 ± 0.045
GENVFLKRISDGLSFGK [SIR3] | 3.26 ± 0.18 | 3.39 ± 0.17 | 3.42 ± 0.075 | 3.54 ± 0.09
RVIDDNNRRRSRKRGGE [SIR3] | 3.57 ± 0.086 | 3.36 ± 0.11 | 3.21 ± 0.11 | 3.46 ± 0.084
LESKMSEVGDAFIFGLQ [SMC3] | 3.29 ± 0.061 | 3.28 ± 0.06 | 3.31 ± 0.041 | 3.34 ± 0.052
LRHMPLASIPDIFITPT [SSN2] | 1.78 ± 0.054 | 1.69 ± 0.054 | 1.47 ± 0.068 | 1.61 ± 0.043
EPAEANEENDLDVDPAK [RPB2] | 3.3 ± 0.18 | 3.15 ± 0.19 | 3.17 ± 0.13 | 3.41 ± 0.17
SNTYKEERSNNLLTPQP [MCD1] | 2.76 ± 0.078 | 3.18 ± 0.094 | 3.01 ± 0.046 | 3.2 ± 0.051
LAAMAVLESHWKQDLTK [PUP1] | 3.24 ± 0.16 | 3.24 ± 0.14 | 2.48 ± 0.21 | 3.71 ± 0.18
SHNFQNAIFQMESEEVP [PCI8] | 2.85 ± 0.059 | 3.07 ± 0.068 | 2.7 ± 0.049 | 3.07 ± 0.05
PSYYGVRDTSPHGISVF [BRR2] | 1.35 ± 0.069 | 1.41 ± 0.057 | 2.29 ± 0.077 | 1.94 ± 0.045
NAIFLSSEQDYSTLKEL [YCG1] | 2.61 ± 0.078 | 2.6 ± 0.11 | 2.18 ± 0.18 | 2.81 ± 0.094
QDIYYLAQTLKLWRKIA [RRI2] | 2.04 ± 0.057 | 2.17 ± 0.046 | 1.88 ± 0.07 | 1.63 ± 0.047
CERRSTLKLQDTRITPS [PRE6] | 2.53 ± 0.061 | 2.81 ± 0.092 | 3.09 ± 0.099 | 2.82 ± 0.059
EAGASAELDDCRGVSEN [RPO21] | 3.47 ± 0.11 | 3.54 ± 0.15 | 3.26 ± 0.08 | 3.6 ± 0.13
SVDDVLSALDHIGHSAL [DPB4] | 3.26 ± 0.2 | 3.53 ± 0.18 | 3.27 ± 0.083 | 3.46 ± 0.069
FTICLNDRNPRLNENKK [CSN12] | 3.03 ± 0.053 | 3.21 ± 0.056 | 3.11 ± 0.043 | 3.06 ± 0.043
IEPLEINIQSFKDVEHI [BRR2] | 2.5 ± 0.069 | 2.31 ± 0.062 | 2.12 ± 0.074 | 2.67 ± 0.068
ISDYQQLESIYFRILLP [SWI1] | 2.24 ± 0.045 | 2.33 ± 0.037 | 2.06 ± 0.049 | 2.34 ± 0.065
RDMIMKRNSDKVEYKIV [ITC1] | 1.78 ± 0.078 | 1.83 ± 0.078 | 1.85 ± 0.12 | 1.31 ± 0.047
PTSPNYSPTSPSYSPTS [RPO21] | 2.78 ± 0.034 | 2.9 ± 0.031 | 3.064 ± 0.026 | 2.969 ± 0.026
ITFLQTLYIGNTANGRP [ECM29] | 2.04 ± 0.085 | 2.73 ± 0.09 | 2.6 ± 0.16 | 1.97 ± 0.12
DNNSSLNVSNTKENGDF [PRP8] | 3.17 ± 0.083 | 2.84 ± 0.084 | 2.9 ± 0.058 | 3.39 ± 0.074
PVGSYEREQCRAGGAAA [PRE7] | 3.02 ± 0.24 | 2.98 ± 0.18 | 3.32 ± 0.17 | 2.78 ± 0.097
KSVKFVQGLLQNAAANA [RPL17A] | 2.56 ± 0.065 | 2.65 ± 0.068 | 2.28 ± 0.05 | 2.46 ± 0.034
NIEERKEKIQHELGINI [BRR2] | 3.02 ± 0.094 | 3.34 ± 0.075 | 3.52 ± 0.075 | 3.22 ± 0.1

Sequence | protein stability index (doa10∆) | protein stability index (pdr5∆) | protein stability index (san1∆) | protein stability index (ubr1∆)
GKYTLGYKSTVKSLRQG [RPL30] | 2.25 ± 0.072 | 2.34 ± 0.049 | 2.54 ± 0.09 | 2.47 ± 0.048
DLYEQIGIDPPRGVLLY [RPT3] | 2.6 ± 0.073 | 3.02 ± 0.1 | 2.8 ± 0.055 | 2.9 ± 0.08
TNELWARLAILKERAKN [YGR119C/NUP57] | 3.26 ± 0.13 | 2.75 ± 0.2 | – | 3.58 ± 0.13
KKMVYVLDSMTKEELES [SRP54] | 3.02 ± 0.086 | 2.85 ± 0.085 | 2.92 ± 0.091 | 3.04 ± 0.069
RHTTGTGRMRYLKHVSR [RPL37A] | 3.14 ± 0.11 | 3.26 ± 0.081 | 3.55 ± 0.081 | 3.1 ± 0.11
ISSRTFGQRAVLKFAAH [RPS0A] | 2.35 ± 0.095 | 2.57 ± 0.098 | 2.69 ± 0.089 | 2.49 ± 0.11
AYIKLLDQTKDTRITHL [SNF2] | 2.65 ± 0.085 | 3.03 ± 0.072 | 2.78 ± 0.06 | 2.39 ± 0.062
TRIKLLLTKNVSCYRPR [RPS6A] | 2.11 ± 0.22 | 2.64 ± 0.14 | 2.88 ± 0.11 | 2.94 ± 0.17
TEQIKMRILSNDITNLQ [SRB8] | 2.33 ± 0.042 | 2.31 ± 0.037 | 2.15 ± 0.043 | 2.16 ± 0.029
GVYKRDNRTKSTTIKNI [SMC4] | 1.62 ± 0.06 | 1.54 ± 0.062 | 1.33 ± 0.14 | 1.23 ± 0.075
LSERKAEKAEIRKRRAS [RPS6A] | 3.44 ± 0.17 | 3.06 ± 0.23 | 3.24 ± 0.13 | 3.36 ± 0.14
ASGSINRKVLQALEKIG [RPS19A] | 1.39 ± 0.071 | 2 ± 0.12 | 1.67 ± 0.11 | 1.99 ± 0.066
GTGKTLLAKAVANQTSA [RPT2] | 1.96 ± 0.085 | 1.95 ± 0.1 | 2.72 ± 0.16 | 1.89 ± 0.092
LTALGKEKEKEREEAEK [MED2] | 1.3 ± 0.23 | 1.43 ± 0.16 | – | 1.32 ± 0.15
QHHVTDADKLSFNCENF [YML031W/NDC1] | 2.45 ± 0.065 | 2.28 ± 0.053 | 2.3 ± 0.058 | 2.2 ± 0.058
ARKYLQTRWGLPSGRQD [FAS2] | 2.54 ± 0.087 | 2.09 ± 0.12 | 2.12 ± 0.14 | 3.16 ± 0.11
IKLDRWLMEGSYQKAWD [RPN12] | 2.72 ± 0.11 | 2.8 ± 0.098 | 2.9 ± 0.11 | 2.68 ± 0.11
LSKLEKALDRHEFFIAN [SRP68] | 2.66 ± 0.055 | 2.61 ± 0.045 | 2.55 ± 0.049 | 2.64 ± 0.047
DKARRLGYKAKQGFVIY [RPL15A] | 3.24 ± 0.16 | 3.33 ± 0.23 | 2.91 ± 0.14 | 3.28 ± 0.25
TTIGDTTDKNTTDDKSM [BRN1] | 3.24 ± 0.082 | 3.33 ± 0.059 | 3.44 ± 0.044 | 3.27 ± 0.043
RSPVFALNMLPSEILHL [GRR1] | 2.3 ± 0.049 | 2.27 ± 0.042 | 2.4 ± 0.053 | 2.19 ± 0.028
IDSINGPDTKGQLEDFD [SMC3] | 3.47 ± 0.14 | 3.29 ± 0.11 | 3.18 ± 0.24 | 3.31 ± 0.1
FQNLELETEQLSSELDS [SMC2] | 2.08 ± 0.12 | 2.58 ± 0.11 | 1.55 ± 0.14 | 2.69 ± 0.13
MIKESSTANPNIKLLNN [POP1] | 3.07 ± 0.2 | 2.9 ± 0.11 | 2.83 ± 0.087 | 2.74 ± 0.066
QIKEIKEVIELPVKHPE [RPT6] | 2.98 ± 0.074 | 3.13 ± 0.088 | 3.27 ± 0.078 | 3.2 ± 0.075
FKLFNKYRPETAAEKKE [RPL8A] | 2.56 ± 0.079 | 2.64 ± 0.083 | 2.5 ± 0.083 | 2.74 ± 0.071
